Measured values as given in patent US20190330347A1 (TAIZHOU HANZHONG BIOPHARMACEUTICS, published 2019).

Columns and labels:
serum complement C1q = serum complement C1q (UniProt P02745 23-245; P02746 28-253; P02747 29-245); test: Fortebio Octet BLI, H8L2 on FAB2G sensor, C1q in solution
Description: Serum complement C1q can bind to the Fc fragment of IgG antibody, thus involving in complement-dependent cytotoxicity (CDC). The safety and efficacy of a therapeutic monoclonal antibody will be affected by the binding ability of the monoclonal antibody to the serum complement C1q.
After binding for 120 seconds, the PBST buffer was applied to the FAB2G sensor for disassociation, which was kept for 180 seconds. The data was collected with the Fortebio Data Acquisition 7.0 software and analyzed with the Fortebio Data Analysis 7.0 software.

[1] = biological target: T1, PD1-hFc of Cynomolgus monkey (Macaca fascicularis) (Cynomolgus monkey (Macaca fascicularis), UniProt B0LAJ3 25-170); test: ELISA on coated cynomolgus PD1-hFc
T1 construct: also called PD1 of Cynomolgus monkey
T1 sequence (B0LAJ3 entry or part of it limits assumed, form in doubt): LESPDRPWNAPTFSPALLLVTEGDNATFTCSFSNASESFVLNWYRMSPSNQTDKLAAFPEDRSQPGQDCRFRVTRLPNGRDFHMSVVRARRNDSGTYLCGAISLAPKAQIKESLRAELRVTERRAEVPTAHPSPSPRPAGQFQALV

PD-1-hIgGFc antigen [2] = biological target: T2, PD-1-hIgGFc antigen (UniProt Q15116 25-167, limits assumed); test: competitive ELISA on coated PD-1-hIgGFc, competitor PDL1-mIgG2aFc
T2 sequence (Q15116 25-167 limits assumed): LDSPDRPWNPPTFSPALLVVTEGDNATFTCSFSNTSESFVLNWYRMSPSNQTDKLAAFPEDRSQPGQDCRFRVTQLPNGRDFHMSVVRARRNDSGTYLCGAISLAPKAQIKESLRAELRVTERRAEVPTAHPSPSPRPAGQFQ
Protocol: A 96-well ELISA plate was coated with PD-1-hIgGFc antigen in a concentration of 0.5 μg/ml (50 μl per well) by incubation at 4° C. overnight.

PD-1-his antigen [3] = biological target: T3, PD-1-his antigen (UniProt Q15116 25-167, limits assumed); test: ELISA on coated PD-1-his; antibody at 1:3 dilution of 2 µg/ml
T3 construct: Human is implied, since cynomolgus and rat PD1 are called non-human antigens
T3 sequence (Q15116 25-167 limits assumed): as above
Protocol: (§1) An ELISA plate was coated with PD-1-his antigen in a concentration of 0.25 μg/ml (100 μl per well) by incubation at 4° C. overnight.
(§2) The ELISA plate coated with the PD-1-his antigen was blocked with 1% BSA in the PBS buffer at 37° C. for 2 hours and washed with 1 xPBST buffer containing 1% Tween-20 for three times, with gently patting to dryness.
(§3) The absorbance of solution in each well was measured with the microplate reader at a wavelength of 450 nm.

PD-1-his antigen [4] = biological target: T3, PD-1-his antigen; test: ELISA on coated PD-1-his
Protocol: as §1, §2, §3

[5] = biological target: T4, PD1 on the surface of cell membrane (293T cell line stably transfected with PD1) (UniProt Q15116 25-288, limits assumed); test: FACS on 293T cells stably transfected with PD1
T4 construct: whole, on cells
T4 sequence (Q15116 25-288 limits assumed): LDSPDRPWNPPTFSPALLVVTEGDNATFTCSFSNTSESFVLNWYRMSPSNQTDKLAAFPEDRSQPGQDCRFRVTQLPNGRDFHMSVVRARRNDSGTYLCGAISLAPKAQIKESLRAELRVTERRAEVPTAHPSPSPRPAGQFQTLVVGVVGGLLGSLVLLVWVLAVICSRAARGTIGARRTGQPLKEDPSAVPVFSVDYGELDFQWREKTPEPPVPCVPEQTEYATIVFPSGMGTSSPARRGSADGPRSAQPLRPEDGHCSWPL
Protocol: Step f) Each group was centrifuged at 4000 r/min at a low temperature for 5 minutes, followed by washing with the PBS buffer once and adding 200 μl PBS for suspending, thus obtaining a suspension for on-line detection.

PD-1-hIgGFc antigen [6] = biological target: T2, PD-1-hIgGFc antigen; test: competitive ELISA on coated PD-1-hIgGFc, competitor PDL2-his tag
Protocol: A 96-well ELISA plate was coated with PD-1-hIgGFc antigen in a concentration of 1.0 μg/ml (100 μl per well) by incubation at 4° C. overnight.
After the 96-well ELISA plate was washed with the PBST buffer for five times and gently patted to dryness, HRP-conjugated monoclonal mouse anti-his tag as a secondary antibody in 1:750 dilution (50 μl per well) was added for incubation at 37° C. for 1 hour.

FcγRIIIa-Biotin = biological target: T5, FcγRIIIa-Biotin (UniProt P08637 17-208, limits assumed, biotin (site not stated)); test: Fortebio Octet BLI, FcγRIIIa-Biotin on SA sensor
T5 construct: also called CD16a
T5 sequence (P08637 17-208 limits assumed): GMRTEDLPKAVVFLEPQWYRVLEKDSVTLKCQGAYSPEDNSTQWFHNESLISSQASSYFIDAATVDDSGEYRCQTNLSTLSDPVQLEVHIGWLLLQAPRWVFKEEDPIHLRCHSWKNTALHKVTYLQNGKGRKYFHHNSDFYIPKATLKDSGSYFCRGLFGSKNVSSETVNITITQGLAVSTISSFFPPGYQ
Description: The data was collected with the Fortebio Data Acquisition 7.0 software and analyzed with the Fortebio Data Analysis 7.0 software.

[7] = biological target: T4, PD1 on the surface of cell membrane …; test: FACS competition on 293T-PD1 cells, competitor PDL1-mFc 20 nM

Chain of serum complement C1q (P02745 23-245 limits assumed, chain 1 of 3): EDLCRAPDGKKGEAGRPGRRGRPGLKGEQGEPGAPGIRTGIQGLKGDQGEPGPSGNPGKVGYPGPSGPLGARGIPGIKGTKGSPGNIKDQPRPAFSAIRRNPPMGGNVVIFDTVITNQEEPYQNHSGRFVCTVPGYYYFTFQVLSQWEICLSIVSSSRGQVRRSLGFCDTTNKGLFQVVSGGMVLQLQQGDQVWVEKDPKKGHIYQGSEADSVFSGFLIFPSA
Chain of serum complement C1q (P02746 28-253 limits assumed, chain 2 of 3): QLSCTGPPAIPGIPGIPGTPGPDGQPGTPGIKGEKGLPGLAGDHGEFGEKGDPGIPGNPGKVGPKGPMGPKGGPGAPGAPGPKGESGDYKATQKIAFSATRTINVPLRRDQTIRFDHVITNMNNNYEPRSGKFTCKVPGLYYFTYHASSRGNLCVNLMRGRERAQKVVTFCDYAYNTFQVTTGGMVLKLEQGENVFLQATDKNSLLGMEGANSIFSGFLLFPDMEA
Chain of serum complement C1q (P02747 29-245 limits assumed, chain 3 of 3): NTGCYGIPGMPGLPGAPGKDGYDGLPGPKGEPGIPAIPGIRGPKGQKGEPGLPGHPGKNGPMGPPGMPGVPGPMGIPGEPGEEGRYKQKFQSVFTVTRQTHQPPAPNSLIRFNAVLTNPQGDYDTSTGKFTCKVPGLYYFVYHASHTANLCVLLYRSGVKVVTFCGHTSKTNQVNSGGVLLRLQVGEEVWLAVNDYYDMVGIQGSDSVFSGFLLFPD

B1: humanized H8L2 antibody (IgG-like antibody H8L2 against PD-1) (antibody)
heavy: EVQLVQSGGGLVQPGGSLKLSCAASGFTFSSYGMSWVRQAPGKGLDWVATISGGGRDTYYPDSVKGRFTISRDNSKNNLYLQMNSLRAEDTALYYCARQKGEAWFAYWGQGTLVTVSSASTKGPSVFPLAPCSRSTSESTAALGCLVKDYFPEPVTVSWNSGALTSGVHTFPAVLQSSGLYSLSSVVTVPSSSLGTKTYTCNVDHKPSNTKVDKRVESKYGPPCPPCPAPEFLGGPSVFLFPPKPKDTLMITRTPEVTCVVVDVSQEDPEVQFNWYVDGVEVHNAKTKPREEQFNSTYRVVSVLTPLHQDWLNGKEYKCKVSNKGLPSSIEKTISKAKGQPREPQVYTLPPSQEEMTKNQVSLTCLVKGFYPSDIAVEWESNGQPENNYKTTPPVLDSDGSFFLYSRLTVDKSRWQEGNVFSCSVMHEALHAHYTQKSLSLSLGK
light: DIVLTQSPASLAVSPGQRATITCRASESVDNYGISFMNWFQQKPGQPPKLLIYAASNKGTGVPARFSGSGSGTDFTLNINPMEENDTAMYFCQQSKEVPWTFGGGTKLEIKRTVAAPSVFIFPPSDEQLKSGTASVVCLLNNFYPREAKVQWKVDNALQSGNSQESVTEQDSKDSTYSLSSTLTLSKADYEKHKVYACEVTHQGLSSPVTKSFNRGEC
notes: Expressed in 293 cells and purified on protein A; also called 18A10 H8L2
In the case of B1, the binding result (serum complement C1q) is reported as “no binding (tested: 3.13 to 200 nM)”, the EC50 [1] is reported as 0.219 nM and the EC50 (PD-1-hIgGFc antigen [2]) is reported as 0.474 nM. The “absorbance at 450 nm” value (PD-1-his antigen [3]) was 1.76, the EC50 (PD-1-his antigen [4]) was 0.04 nM and the EC50 [5] was 3.4 nM. The EC50 (PD-1-hIgGFc antigen [6]) was 1.83 nM, the binding result (FcγRIIIa-Biotin) was “no binding (tested: 4000 nM)” and the EC50 [7] was 19.6 nM.
